Experiment: yeast display, Sf9 membrane polyspecificity reagent, FACS + sequencing; frameworks hold sequencing errors
How it was run: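 Polyreactivity labels are assigned by the sorting gate from which each nanobody was recovered. The gates were low and high (top ~1%), set on anti-HA fluorescence for expression and streptavidin fluorescence for reagent binding. Before sorting, galactose-induced (36–48 hours) yeast display cells were stained for 1 hour at 4 °C with 10% biotinylated, detergent-solubilized Sf9 membrane reagent.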

Sequence: QVQLVESGVGLVQAGGSLRLSCSASGSTFFGNGMGWYRQAPGKERELVAAISGGGSTHYADSVKGRFTISRDNAKNTVYLQMNSLKPEDPAVYYCSPSRDTVGRGPIQRDYWGQGTQVTVSS
- polyreactivity (PSR sort gate): low polyreactivity

Sequence: QVQLVESGVGLVQAGGSLRLSSAASGFTFIYYPMGWYRPAPGKERELVAAITSGGNTYYADSVKGRFTISRDNAKNSVYFQMNSLKPEDTAVYYCNKVPHREWVGGYDYWGQGTQVTVSS
- polyreactivity (PSR sort gate): low polyreactivity

Sequence: QVQLVESGVGLVQAGGSLRLSSAASGSIFAHNAMGWYRQEPGKEREFVATITYSGGTTYYADSVKGRFTISRDNAKNTVYLQMNILKPEDTAVYYCAKLRYPYLFWDDSEYWGQGTQVTVSS
- polyreactivity (PSR sort gate): low polyreactivity

Sequence: QVQLVESGVGLVQAGGSLRLSWAATGSIFPYNDLGWYRKAPGKERELVAAISDSAGTTYYADSVKGRFTISRDNAKNTVDLQMNSLKPEDTAGYYCAADSWDSQVVSYEYWGQGTQVTLSS
- polyreactivity (PSR sort gate): low polyreactivity

Sequence: QVQLVESGVGLVQAGGSLRLTCAASGITFLYNAMGSYRQAPGKERELVAVITRGGITNYADSVKGRFTISRDNAKNTDSLQMYRLNPEDTAVYDWAAYRGIYSRYDYWGQGTQVNVSS
- polyreactivity (PSR sort gate): high polyreactivity

Sequence: QVQLVESGVGLVQAGGSLSLSCAASGPYYFMGWYRQAPGKESELVAAITRRGGRTYYADSVKGRFTISRDNANITVYLQMNSLKPEDTAVYYCAAKYRYHVSGYDYWGQGTQVTVSS
- polyreactivity (PSR sort gate): high polyreactivity

Sequence: QVQLVESGVGLVQAGVRLRLSCAASGITLRRYAMGWYRQAPGKEREFVAAISRTGGNTYYADSVKGRFTISRDNAKNTVYLQMNSLKPEDTAVYYCAREVYRHYAPVGYDYWGQGTQVTVSS
- polyreactivity (PSR sort gate): high polyreactivity

Sequence: QVQLVESGVGLVQAGVSLRLSCAASGIILTEYAMGCYRQAHGKERELVAAINRVGSTNYADSVKGRFTISRDNAKNTVYLQMNSLNPEDTAVYYCAAGTYYNDYDYWGQGTQVTVSS
- polyreactivity (PSR sort gate): low polyreactivity

Sequence: QVQLVESGVGLVQAGVSLRLSSAASGSIFRLYTMGWYRQATGKERELVAAITWSGGRTYYADSVKGRFTISRDNAKNTVYLQMNSLKPEDTAVYYCAADNWYSTYDYWGRGTQVTVSS
- polyreactivity (PSR sort gate): high polyreactivity

Sequence: QVQLVESGVGLVQARGSLRLSCAASGIIFKKTVMGWYRPSPGKERECVAPITSRDGSTYYADSVKGRFTISRDNANNTVYLQMNSLKPEDTAVYYCAAEVYDGYEYEVWYDYCGQGTQVTVSS
- polyreactivity (PSR sort gate): high polyreactivity

Sequence: QVQLVESGVGLVQARGSLRLSSAASGRIFDRNAMGWYRQSPGNERELVAAIDDSGGDTSYADSVKGRFTISRDNAKNTVYLQMTSLKPEDTAVYYCNAVKQRSSIFDYWGQGTQLTVSS
- polyreactivity (PSR sort gate): low polyreactivity

Sequence: QVQLVESGVGLVQARRSLRLSCAASGSSKLILWDGIDRRLGKKGSWLPLFVLVVLRNYADSVKGRFTISRDNAKNTVYLQMNILKPDDTEVYYCAATAIGSGGWGDYWGLGTQVTVSS
- polyreactivity (PSR sort gate): low polyreactivity

Sequence: QVQLVESGVGLVQPGGILRLSCAASGIIFTQYAMGWNIQAPGKESELVAAMSGSGGSTYYADSVKGRFTISRDNAKNTVYLQMNSLKPEDTAVFYCAAGGVRGPGVESRMFYLGQGTQVTVSS
- polyreactivity (PSR sort gate): high polyreactivity

Sequence: QVQLVESGVGVVQAGGSLRLSCAASGRIFYGYAMGWYRQAPGKERELVAAISRGGTRTFYADSVKGRFTISRDNAKNTVYVQMNSLKPEDTAVYYCAARKRDFYSGYEYYYWGQGTQVTVSS
- polyreactivity (PSR sort gate): high polyreactivity

Sequence: QVQLVESGVRLGQAGGSLRLSCAASGSIFLRYAMGWFRPAPGKERELVATISQRGSTYYADSVKGRFTISRDNAKNTVYLKKNSLKPEDTAVYYCNAVGRARTLGSNTYGYWGQGTQVTVSS
- polyreactivity (PSR sort gate): high polyreactivity

Sequence: QVQLVESGVRLVQAGGRLRLSCAASGRIFDHNAMGWYRQAPGKERELVAAIDSGTSTNYADSVKGRFTISRDNAKNTVYLQMNSLKPEDTAVYYCARLLGPVRHKYDYDYWGQGTQVTVSS
- polyreactivity (PSR sort gate): low polyreactivity

Sequence: QVQLVESGVRLVQAGGSLRLSCAASGRTLKYNAMGWYIQAPGKERELVAAISYSGSSTYYADSVRGRFTISRDNAKNTVYLQMNSLKPEDTAVYYFNTARPTAAYDYWGQGTQVTVSS
- polyreactivity (PSR sort gate): low polyreactivity

Sequence: QVQLVESGVRLVQAVGSHRLSCAASASIIDGNSMGWYRQAPGKERELGAVISSRGTRTYYADSVKGRFTISRDNAKKTVYLQMNILKPEDTAVYYCNTRTSDLNGSGDYWGLGTQVTVSS
- polyreactivity (PSR sort gate): high polyreactivity

Sequence: QVQLVESGVVLVQAGGSLRLSCAASGTIFDLNAMGWYRQAPGKEREFVAAISSGGGTYYADSVKGRFTISRDNANNTVYLQMNSQKPEDTAVYYCKARARRYGGRYYYWGQGTQVTVSS
- polyreactivity (PSR sort gate): high polyreactivity

Sequence: QVQLVESPGGLDQAGGSLRLSGAASGSTLYDNAMGWYRQAPGKERELVAAISRSGGRTYYADSVKGRFTISRDNAKNTVYLHMNSLIPEDTAVYYCNAVVNGPGNYVTYDSWGQGTQVTVSS
- polyreactivity (PSR sort gate): high polyreactivity

Sequence: QVQLVESRGGIVQAGGSLRLSCAASGRIFNNYAMGCYRQAPGKERELDAAISGGGSTNYADSVKGRFTISRDNETNTVYLQMNSLKPEDTAVYYSATGYLKASRDLYETVPYDYWGQGTQVTVSS
- polyreactivity (PSR sort gate): low polyreactivity

Sequence: QVQLVESRGGIVQAGGSLRLSSAASGSTFAYNDLGWYRQAPGKERQLVADMRSGGNTNYADSVKGRFTISRDNAKNTVYLQMNSLKPEDTAVYYCATDGYRIDVYHPDYRYDYWGLGTQVTVSS
- polyreactivity (PSR sort gate): low polyreactivity

Sequence: QVQLVESRGGLLQAGGSLRLSCAASGSIFKYYSMGSYRQAPGKERELVAAIRWSGGTTYYADSVKGRFTISRDNAKNTVYLQMNSLKPEDTAVYYCAAEYFNQNTREGYDYWGQGSQVTVSS
- polyreactivity (PSR sort gate): low polyreactivity

Sequence: QVQLVESRGGLVQAGGSLLLSFAASGRTYPYNAMGWYIQAPRKERELVAGISSGGTTTYADSVKGRFTISRDNAKNTVYLQMNSLKPEDTAVYYCAATVIIFDHSLPGWDDYDYWGQGTQVTVSS
- polyreactivity (PSR sort gate): low polyreactivity

Sequence: QVQLVESRGGLVQAGGSLPLSCAASGFIFTSYAMGWYRQAHGKEREFVAAISGSGGSTYYADSVKGRFTISRDNAKNTVYLQMNSLKPEDTAVYYCAAESWVGYYLYWYDYWGQGTQVTVSS
- polyreactivity (PSR sort gate): high polyreactivity

Sequence: QVQLVESRGGLVQAGGSLRLRCAASGFIFGYNVMGWYRQAPGKERELVASISTGGRTYYADSVKGRFTISRDNAKNTVYLQMNSLKPEDTAVYYCAARYRSYSYLYYSWGQGTQVTVSS
- polyreactivity (PSR sort gate): high polyreactivity

Sequence: QVQLVESRGGLVQAGGSLRLSCAASGFIFFQYAMGWYRQAPGTERELVAAISGSGVTTYYADSVKGRFTISRDNAKNTVYLQMNSLKPEDTAVYYCNAALRWKYDWGQGTQVTVSS
- polyreactivity (PSR sort gate): low polyreactivity

Sequence: QVQLVESRGGLVQAGGSLRLSCAASGFIFGYYALGWYRQAPGKEWELVAAITNGGRTYYADSVKGRFTISRDNAKNTVYLQMISLKPEDTAVYYCAARPSWWSALFDSWGQGTQVTVSS
- polyreactivity (PSR sort gate): low polyreactivity

Sequence: QVQLVESRGGLVQAGGSLRLSCAASGFIFSRYGMGWYRQAPGKERELVAAISRSGGSTYYADSVKGRFTISRDNAKNTVYVQMNSLKPEDTAVYYCATAYSWRNADWFAYSYDYWGQGTQVTVSS
- polyreactivity (PSR sort gate): low polyreactivity

Sequence: QVQLVESRGGLVQAGGSLRLSCAASGFTFDNYGMGWYSQAPGKERELVAAISKSGTSTYYADSGKGRFTITRDNAKNTVYLQMNSLNPEDTAVYYCSGALPGYGDYYYWGQGTQVTVSS
- polyreactivity (PSR sort gate): high polyreactivity

Sequence: QVQLVESRGGLVQAGGSLRLSCAASGFTFFVYPMGWYRQAAGKERELVAVITSGGTTNYADSVKGRFTISRDNAKNTVYLQMNSLIPEDTAVYYCATDNGGIPKYVPYDYWGQGTQGTVSS
- polyreactivity (PSR sort gate): high polyreactivity

Sequence: QVQLVESRGGLVQAGGSLRLSCAASGFTFVGYAMGWYRQAPGKERALVAAISRRGTPTYYADSVKGRFTISRDNAKNTVYLQMNSLKPEDTAVYFCAASNGYQAVTYDYWGQGTQVTVSS
- polyreactivity (PSR sort gate): high polyreactivity

Sequence: QVQLVESRGGLVQAGGSLRLSCAASGITFTIYAMGWYRQAPGKERELVAAITWTSDITHYADSVKGRFTISRDNAKNTVYLQMISLKPEDTAVYYCAATTWDEYDYWGQGTQVTVSS
- polyreactivity (PSR sort gate): high polyreactivity

Sequence: QVQLVESRGGLVQAGGSLRLSCAASGITSRLNAMVWYRQAPGKERELVAGISRGGGTTYYADSVKGRFTISRDNAKNTVYLQMNSLKTEDTAVYYCAAAYRVRGGTYDSWGQGTQVTVSS
- polyreactivity (PSR sort gate): high polyreactivity

Sequence: QVQLVESRGGLVQAGGSLRLSCAASGLTFVYYAMGWYRQAPGKERELVASIDYSGSSTYYADSVKGRFTISRDNAKNTVYLQMNSLKPEDTAVYYCAATDSGEYWGQGTQVTVSS
- polyreactivity (PSR sort gate): low polyreactivity

Sequence: QVQLVESRGGLVQAGGSLRLSCAASGRIFNAYAMGWYRQAPGKERELVAAITVSGTRTYYADSVKGRFTISRDNAKNTVYLQMNSLKPEDTAVYYCAAEVVNYWYSYDYWGQGTQVTVSS
- polyreactivity (PSR sort gate): high polyreactivity

Sequence: QVQLVESRGGLVQAGGSLRLSCAASGRILYVNDMGWYRQAPRKERELVAAISWRGGRTYYADSVKGRFTISRDNAKNTVYLQMNSLKPEDTAVYYCAARARGGYQRDYYWGQGTQVTVSS
- polyreactivity (PSR sort gate): high polyreactivity

Sequence: QVQLVESRGGLVQAGGSLRLSCAASGRNFPINTMGWYRQAPGKERELVAAIRTSGSSTYADSVKGRFTISRDNAKNSVYLQMNSLKPEDTAVYYCNTKYPGRGYYWGQGTQVTVSS
- polyreactivity (PSR sort gate): high polyreactivity

Sequence: QVQLVESRGGLVQAGGSLRLSCAASGRTFYSYAMGWSRQAPGKERELVAAITSSGGSTYYADSVKGRFTISRDNAKNTVYLQMNSLKPEDTAVYYCAAGKPYSSYWSWGYWTNLEDDYWGQGTQVTVSS
- polyreactivity (PSR sort gate): high polyreactivity

Sequence: QVQLVESRGGLVQAGGSLRLSCAASGRTIINYAMGCYRQAPRKERELVAAITTGGRTNYADSVKGRFTISRDNAQNTVYLQMNSMKPEDTAVYYCNAVRYYRYYYWGQGTQVTVSS
- polyreactivity (PSR sort gate): low polyreactivity

Sequence: QVQLVESRGGLVQAGGSLRLSCAASGSIFDSYAMGWYRQAPGKERELVADISSGGSTYYADSVKGRFTISRDNAKNTVYLQMNSLKPEDTAVYYCAAQYVYYFYGDEAFTDDYWGQGTQVTVSS
- polyreactivity (PSR sort gate): low polyreactivity

Sequence: QVQLVESRGGLVQAGGSLRLSCAASGSIFGRNAMGWYRQAPGKERELVAAIRSGDSTNYADSVKGRFTISRDNAKNTVYLQMNSLKPEDTAVYYCAADYIFWHRRDKKSVVMDYWGQGTQVTVSS
- polyreactivity (PSR sort gate): low polyreactivity

Sequence: QVQLVESRGGLVQAGGSLRLSCAASGSIFLVYAMGWYRQAPGKERELVAAIDSSGGSTYYADSVKGRFTISRDNAKNTVYLQMNSLKREDTAVYYCAVYIRYPWSGRYDYWGQGTQVTVSS
- polyreactivity (PSR sort gate): high polyreactivity
